# Experimental data as given in patent US20060067951A1 (GOVERNING COUNCIL OF THE UNIVERSITY OF TORONTO, published 2006).
# T1: S. mutans ComD histidine kinase receptor (Streptococcus mutans)
# T1 chain: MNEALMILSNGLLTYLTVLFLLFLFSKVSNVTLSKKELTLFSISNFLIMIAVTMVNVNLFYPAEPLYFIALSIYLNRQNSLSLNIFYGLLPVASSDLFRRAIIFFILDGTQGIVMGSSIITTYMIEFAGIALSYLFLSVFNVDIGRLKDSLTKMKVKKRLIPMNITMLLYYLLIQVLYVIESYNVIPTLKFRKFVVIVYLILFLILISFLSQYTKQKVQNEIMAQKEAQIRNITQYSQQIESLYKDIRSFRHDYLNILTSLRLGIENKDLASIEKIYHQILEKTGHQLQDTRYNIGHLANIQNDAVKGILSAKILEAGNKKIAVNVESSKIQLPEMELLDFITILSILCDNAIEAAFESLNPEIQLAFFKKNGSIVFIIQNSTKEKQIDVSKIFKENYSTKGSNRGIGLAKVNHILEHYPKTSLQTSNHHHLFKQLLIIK
# Biological target: T1, S. mutans ComD histidine kinase receptor
# Assay: cell-based or functional assay
Binder,"Transformation efficiency (vs 5 µg CSP), 5 µg/ml peptide, S. mutans wild-type UA159","Transformation efficiency (vs no CSP), 5 µg/ml peptide, S. mutans wild-type UA159"
SGSLSTFFRLFNVSFTQALGK [CSP peptide analog D2],16 fold decrease,99 fold increase
SGSLSTFFRLFNRSFTALGK [CSP peptide analog A2],7 fold decrease,125 fold increase
SGSLSTFFRLFNRSFTQALK [CSP peptide analog F1],3 fold decrease,541 fold increase
SGSLSTFFRLFNASFTQALGK [CSP peptide analog E2],6 fold decrease,252 fold increase
SGSLSTFFALFNRSFTQALGK [CSP peptide analog C2],48 fold decrease,32 fold increase
SGSLSTFFVLFNRSFTQALGK [CSP peptide analog B2],414 fold decrease,4 fold increase
SGSLSTFFRLFNRSFTQLGK [CSP peptide analog H1],28000 fold decrease,18 fold decrease
SGSLSTFFRLFNRSFTQALGK [mature wild-type S. mutans competence stimulating peptide (CSP)],,1550 fold increase
SGSLSTFFRLFNRSFTQAGK [CSP peptide analog G1],2 fold decrease,848 fold increase
SGTLSTFFRLFNRSFTQA [CSP peptide analog B3],8 fold decrease,195 fold increase
SGSSTFFRLFNRSFTQALGK [CSP peptide analog D1],6 fold decrease,275 fold increase
SGSLTFFRLFNRSFTQALGK [CSP peptide analog E1],2 fold decrease,791 fold increase
SGSLSTFFRLFNRSFTQALGA [CSP peptide analog G2],28 fold decrease,56 fold increase
SGSLSTFFRLFNRSFTQALGV [CSP peptide analog F2],3 fold decrease,543 fold increase
